Assay results reported in paper PMC5686206.

Substrate: T1, OCP lacking the NTE comprising the first 20 amino acids (ΔNTE), 6xHis-tagged (Synechocystis sp. PCC 6803) (UniProt P74102)
T1 sequence: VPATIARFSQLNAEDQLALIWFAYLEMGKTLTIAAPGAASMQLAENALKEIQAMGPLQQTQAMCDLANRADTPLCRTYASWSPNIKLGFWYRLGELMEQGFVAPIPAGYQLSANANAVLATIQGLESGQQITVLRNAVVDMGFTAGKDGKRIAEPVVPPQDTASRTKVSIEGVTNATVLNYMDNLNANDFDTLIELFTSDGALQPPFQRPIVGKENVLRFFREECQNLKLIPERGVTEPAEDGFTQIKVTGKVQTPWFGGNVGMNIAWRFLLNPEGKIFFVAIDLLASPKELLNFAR

amplitude a3 (yield) of the slow component (C3) of flash-induced absorption transients at 550 nm, ΔNTE OCP + FRP (FRP to ΔNTE OCP ratio 1.6), 36 °C: 76%
time constant t1 of the fast component (C1) of flash-induced absorption transients at 550 nm, ΔNTE OCP + FRP (FRP to ΔNTE OCP ratio 1.6), 36 °C: 70.4 µs
B1: Fluorescence Recovery Protein (FRP), 6xHis-tagged (natural protein)
chain: MLQTAEAPWSQAETQSAHALFRKAYQRELDGLLATVQAQASQITQIDDLWKLHDFLSAKRHEIDGKYDDRQSVIIFVFAQLLKEGLVQAEELTFLAADKQSKIKALARL
